Experimental data: US8993253

Target: T1, Chromogenic polypeptide Val-Arg-[pABA]-Gly
T1 chain: VRXG

B1: papain (protein)
chain: IPEYVDWRQKGAVTPVKNQGSCGSCWAFSAVVTIEGIIKIRTGNLNEYSEQELLDCDRRSYGCNGGYPWSALQLVAQYGIHYRNTYPYEGVQRYCRSREKGPYAAKTDGVRQVQPYNEGALLYSIANQPVSVVLEAAGKDFQLYRGGIFVGPCGNKVDHAVAAVGYGPNYILIKNSWGTGWGENGYIRIKRGTGNSYGVCGLYTSSFYPVKN
  colour change with DMAC after proteolysis (booklet assay): after ten minutes DMAC changed from yellow to red
